From patent US20150299281A1 (ZEALAND PHARMA A S, published 2015) come the findings set out here.

One assay deals with T1, human GIP receptor (human, UniProt P48546 22-466).
T1 sequence (looked up): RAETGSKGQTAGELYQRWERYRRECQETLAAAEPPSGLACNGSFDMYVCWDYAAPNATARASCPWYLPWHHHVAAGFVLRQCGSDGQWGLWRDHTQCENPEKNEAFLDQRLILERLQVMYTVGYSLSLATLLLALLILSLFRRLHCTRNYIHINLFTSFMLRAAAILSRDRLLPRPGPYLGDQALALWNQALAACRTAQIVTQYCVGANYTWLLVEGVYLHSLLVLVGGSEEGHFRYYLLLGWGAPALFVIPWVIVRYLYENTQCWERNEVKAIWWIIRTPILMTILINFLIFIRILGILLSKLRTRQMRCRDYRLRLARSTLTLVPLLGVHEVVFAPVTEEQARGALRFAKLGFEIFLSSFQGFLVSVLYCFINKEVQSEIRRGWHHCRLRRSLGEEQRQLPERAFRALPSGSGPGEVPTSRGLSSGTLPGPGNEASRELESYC
Briefly: cell-based or functional assay.

Another assay concerns the target human GLP-1 receptor (human, UniProt P43220 24-463). Briefly: cell-based or functional assay.

Numbered stars: 1 amine (or outer) side, 2 acyl side, 3 side chain; on linkers, the order of the positions; unused ones are H or OH. Square brackets hold non-standard residues; d marks the D form. Side chains are listed from the residue outwards. * marks the point of attachment. γGlu = O=C(O)[C@H](CCC(=O)[*:2])N[*:1]; Palmitoyl = CCCCCCCCCCCCCCCC(=O)*; Aib = CC(C)(N)C(=O)O

B1: Compound 45 (peptide)
peptide: H-Y[Aib]EGTFTSDYSKYLDSK([γGlu-Palmitoyl])AAHDFVEWLLSA-NH2
SMILES: CCCCCCCCCCCCCCCC(=O)N[C@@H](CCC(=O)NCCCC[C@H](NC(=O)[C@H](CO)NC(=O)[C@H](CC(=O)O)NC(=O)[C@H](CC(C)C)NC(=O)[C@H](Cc1ccc(O)cc1)NC(=O)[C@H](CCCCN)NC(=O)[C@H](CO)NC(=O)[C@H](Cc1ccc(O)cc1)NC(=O)[C@H](CC(=O)O)NC(=O)[C@H](CO)NC(=O)[C@@H](NC(=O)[C@H](Cc1ccccc1)NC(=O)[C@@H](NC(=O)CNC(=O)[C@H](CCC(=O)O)NC(=O)C(C)(C)NC(=O)[C@@H](N)Cc1ccc(O)cc1)[C@@H](C)O)[C@@H](C)O)C(=O)N[C@@H](C)C(=O)N[C@@H](C)C(=O)N[C@@H](Cc1c[nH]cn1)C(=O)N[C@@H](CC(=O)O)C(=O)N[C@@H](Cc1ccccc1)C(=O)N[C@H](C(=O)N[C@@H](CCC(=O)O)C(=O)N[C@@H](Cc1c[nH]c2ccccc12)C(=O)N[C@@H](CC(C)C)C(=O)N[C@@H](CC(C)C)C(=O)N[C@@H](CO)C(=O)N[C@@H](C)C(N)=O)C(C)C)C(=O)O
Take B1: the “EC50, cAMP induction in HEK293 cells expressing human GIP R” value with human GIP receptor came to 0.32 nM. Moreover, the “EC50, cAMP induction in HEK293 cells expressing human GLP-1 R” value in the assay with human GLP-1 receptor is 0.11 nM.

B2: Compound 40 (peptide)
peptide: H-Y[Aib]EGTFTSDYSIYLDEKAAKDFVEWLLSA-NH2
SMILES: CC[C@H](C)[C@H](NC(=O)[C@H](CO)NC(=O)[C@H](Cc1ccc(O)cc1)NC(=O)[C@H](CC(=O)O)NC(=O)[C@H](CO)NC(=O)[C@@H](NC(=O)[C@H](Cc1ccccc1)NC(=O)[C@@H](NC(=O)CNC(=O)[C@H](CCC(=O)O)NC(=O)C(C)(C)NC(=O)[C@@H](N)Cc1ccc(O)cc1)[C@@H](C)O)[C@@H](C)O)C(=O)N[C@@H](Cc1ccc(O)cc1)C(=O)N[C@@H](CC(C)C)C(=O)N[C@@H](CC(=O)O)C(=O)N[C@@H](CCC(=O)O)C(=O)N[C@@H](CCCCN)C(=O)N[C@@H](C)C(=O)N[C@@H](C)C(=O)N[C@@H](CCCCN)C(=O)N[C@@H](CC(=O)O)C(=O)N[C@@H](Cc1ccccc1)C(=O)N[C@H](C(=O)N[C@@H](CCC(=O)O)C(=O)N[C@@H](Cc1c[nH]c2ccccc12)C(=O)N[C@@H](CC(C)C)C(=O)N[C@@H](CC(C)C)C(=O)N[C@@H](CO)C(=O)N[C@@H](C)C(N)=O)C(C)C
On to B2, for which the “EC50, cAMP induction in HEK293 cells expressing human GIP R” value in the assay with human GIP receptor is 0.011 nM. Also, the “EC50, cAMP induction in HEK293 cells expressing human GLP-1 R” value in the assay with human GLP-1 receptor was determined as 0.022 nM.

B3: Compound 44 (peptide)
peptide: H-Y[Aib]EGTFTSDYSIYLDSKAAHDFVEWLLRA-NH2
SMILES: CC[C@H](C)[C@H](NC(=O)[C@H](CO)NC(=O)[C@H](Cc1ccc(O)cc1)NC(=O)[C@H](CC(=O)O)NC(=O)[C@H](CO)NC(=O)[C@@H](NC(=O)[C@H](Cc1ccccc1)NC(=O)[C@@H](NC(=O)CNC(=O)[C@H](CCC(=O)O)NC(=O)C(C)(C)NC(=O)[C@@H](N)Cc1ccc(O)cc1)[C@@H](C)O)[C@@H](C)O)C(=O)N[C@@H](Cc1ccc(O)cc1)C(=O)N[C@@H](CC(C)C)C(=O)N[C@@H](CC(=O)O)C(=O)N[C@@H](CO)C(=O)N[C@@H](CCCCN)C(=O)N[C@@H](C)C(=O)N[C@@H](C)C(=O)N[C@@H](Cc1c[nH]cn1)C(=O)N[C@@H](CC(=O)O)C(=O)N[C@@H](Cc1ccccc1)C(=O)N[C@H](C(=O)N[C@@H](CCC(=O)O)C(=O)N[C@@H](Cc1c[nH]c2ccccc12)C(=O)N[C@@H](CC(C)C)C(=O)N[C@@H](CC(C)C)C(=O)N[C@@H](CCCNC(=N)N)C(=O)N[C@@H](C)C(N)=O)C(C)C
For the molecule B3, the “EC50, cAMP induction in HEK293 cells expressing human GIP R” value in the assay with human GIP receptor was found to be 0.016 nM. In addition, the “EC50, cAMP induction in HEK293 cells expressing human GLP-1 R” value with human GLP-1 receptor stood at 0.013 nM.

B4: Compound 43 (peptide)
peptide: H-Y[Aib]EGTFTSDYSIYLEKKAAKEFVEWLLSA-NH2
SMILES: CC[C@H](C)[C@H](NC(=O)[C@H](CO)NC(=O)[C@H](Cc1ccc(O)cc1)NC(=O)[C@H](CC(=O)O)NC(=O)[C@H](CO)NC(=O)[C@@H](NC(=O)[C@H](Cc1ccccc1)NC(=O)[C@@H](NC(=O)CNC(=O)[C@H](CCC(=O)O)NC(=O)C(C)(C)NC(=O)[C@@H](N)Cc1ccc(O)cc1)[C@@H](C)O)[C@@H](C)O)C(=O)N[C@@H](Cc1ccc(O)cc1)C(=O)N[C@@H](CC(C)C)C(=O)N[C@@H](CCC(=O)O)C(=O)N[C@@H](CCCCN)C(=O)N[C@@H](CCCCN)C(=O)N[C@@H](C)C(=O)N[C@@H](C)C(=O)N[C@@H](CCCCN)C(=O)N[C@@H](CCC(=O)O)C(=O)N[C@@H](Cc1ccccc1)C(=O)N[C@H](C(=O)N[C@@H](CCC(=O)O)C(=O)N[C@@H](Cc1c[nH]c2ccccc12)C(=O)N[C@@H](CC(C)C)C(=O)N[C@@H](CC(C)C)C(=O)N[C@@H](CO)C(=O)N[C@@H](C)C(N)=O)C(C)C
In the case of B4, in the assay with human GIP receptor, the “EC50, cAMP induction in HEK293 cells expressing human GIP R” value was 0.0091 nM. For the same molecule, the “EC50, cAMP induction in HEK293 cells expressing human GLP-1 R” value with human GLP-1 receptor came out at 0.017 nM.

B5: Compound 46 (peptide)
peptide: H-Y[Aib]EGTFTSDYSIYLEKK([γGlu-Palmitoyl])AAKEFVEWLLSA-NH2
SMILES: CCCCCCCCCCCCCCCC(=O)N[C@@H](CCC(=O)NCCCC[C@H](NC(=O)[C@H](CCCCN)NC(=O)[C@H](CCC(=O)O)NC(=O)[C@H](CC(C)C)NC(=O)[C@H](Cc1ccc(O)cc1)NC(=O)[C@@H](NC(=O)[C@H](CO)NC(=O)[C@H](Cc1ccc(O)cc1)NC(=O)[C@H](CC(=O)O)NC(=O)[C@H](CO)NC(=O)[C@@H](NC(=O)[C@H](Cc1ccccc1)NC(=O)[C@@H](NC(=O)CNC(=O)[C@H](CCC(=O)O)NC(=O)C(C)(C)NC(=O)[C@@H](N)Cc1ccc(O)cc1)[C@@H](C)O)[C@@H](C)O)[C@@H](C)CC)C(=O)N[C@@H](C)C(=O)N[C@@H](C)C(=O)N[C@@H](CCCCN)C(=O)N[C@@H](CCC(=O)O)C(=O)N[C@@H](Cc1ccccc1)C(=O)N[C@H](C(=O)N[C@@H](CCC(=O)O)C(=O)N[C@@H](Cc1c[nH]c2ccccc12)C(=O)N[C@@H](CC(C)C)C(=O)N[C@@H](CC(C)C)C(=O)N[C@@H](CO)C(=O)N[C@@H](C)C(N)=O)C(C)C)C(=O)O
For B5, the “EC50, cAMP induction in HEK293 cells expressing human GIP R” value with human GIP receptor is 0.088 nM. Also, in the assay with human GLP-1 receptor, the “EC50, cAMP induction in HEK293 cells expressing human GLP-1 R” value worked out at 0.048 nM.

B6: Compound 42 (peptide)
peptide: H-Y[Aib]EGTFTSDYSIYLDKKAAHDFVEWLLSA-NH2
SMILES: CC[C@H](C)[C@H](NC(=O)[C@H](CO)NC(=O)[C@H](Cc1ccc(O)cc1)NC(=O)[C@H](CC(=O)O)NC(=O)[C@H](CO)NC(=O)[C@@H](NC(=O)[C@H](Cc1ccccc1)NC(=O)[C@@H](NC(=O)CNC(=O)[C@H](CCC(=O)O)NC(=O)C(C)(C)NC(=O)[C@@H](N)Cc1ccc(O)cc1)[C@@H](C)O)[C@@H](C)O)C(=O)N[C@@H](Cc1ccc(O)cc1)C(=O)N[C@@H](CC(C)C)C(=O)N[C@@H](CC(=O)O)C(=O)N[C@@H](CCCCN)C(=O)N[C@@H](CCCCN)C(=O)N[C@@H](C)C(=O)N[C@@H](C)C(=O)N[C@@H](Cc1c[nH]cn1)C(=O)N[C@@H](CC(=O)O)C(=O)N[C@@H](Cc1ccccc1)C(=O)N[C@H](C(=O)N[C@@H](CCC(=O)O)C(=O)N[C@@H](Cc1c[nH]c2ccccc12)C(=O)N[C@@H](CC(C)C)C(=O)N[C@@H](CC(C)C)C(=O)N[C@@H](CO)C(=O)N[C@@H](C)C(N)=O)C(C)C
For B6, the “EC50, cAMP induction in HEK293 cells expressing human GIP R” value in the assay with human GIP receptor is 0.007 nM. In addition, the “EC50, cAMP induction in HEK293 cells expressing human GLP-1 R” value in the assay with human GLP-1 receptor came out at 0.012 nM.

B7: Compound 47 (peptide)
peptide: H-Y[Aib]EGTFTSDYSIYLDSK([γGlu-Palmitoyl])AAHDFVEWLLRA-NH2
SMILES: CCCCCCCCCCCCCCCC(=O)N[C@@H](CCC(=O)NCCCC[C@H](NC(=O)[C@H](CO)NC(=O)[C@H](CC(=O)O)NC(=O)[C@H](CC(C)C)NC(=O)[C@H](Cc1ccc(O)cc1)NC(=O)[C@@H](NC(=O)[C@H](CO)NC(=O)[C@H](Cc1ccc(O)cc1)NC(=O)[C@H](CC(=O)O)NC(=O)[C@H](CO)NC(=O)[C@@H](NC(=O)[C@H](Cc1ccccc1)NC(=O)[C@@H](NC(=O)CNC(=O)[C@H](CCC(=O)O)NC(=O)C(C)(C)NC(=O)[C@@H](N)Cc1ccc(O)cc1)[C@@H](C)O)[C@@H](C)O)[C@@H](C)CC)C(=O)N[C@@H](C)C(=O)N[C@@H](C)C(=O)N[C@@H](Cc1c[nH]cn1)C(=O)N[C@@H](CC(=O)O)C(=O)N[C@@H](Cc1ccccc1)C(=O)N[C@H](C(=O)N[C@@H](CCC(=O)O)C(=O)N[C@@H](Cc1c[nH]c2ccccc12)C(=O)N[C@@H](CC(C)C)C(=O)N[C@@H](CC(C)C)C(=O)N[C@@H](CCCNC(=N)N)C(=O)N[C@@H](C)C(N)=O)C(C)C)C(=O)O
Regarding B7, the “EC50, cAMP induction in HEK293 cells expressing human GIP R” value with human GIP receptor is 0.096 nM. For the same molecule, in the assay with human GLP-1 receptor, the “EC50, cAMP induction in HEK293 cells expressing human GLP-1 R” value came to 0.14 nM.

B8: Compound 41 (peptide)
peptide: H-Y[Aib]EGTFTSDYSIYLESKAAHDFVEWLLSA-NH2
SMILES: CC[C@H](C)[C@H](NC(=O)[C@H](CO)NC(=O)[C@H](Cc1ccc(O)cc1)NC(=O)[C@H](CC(=O)O)NC(=O)[C@H](CO)NC(=O)[C@@H](NC(=O)[C@H](Cc1ccccc1)NC(=O)[C@@H](NC(=O)CNC(=O)[C@H](CCC(=O)O)NC(=O)C(C)(C)NC(=O)[C@@H](N)Cc1ccc(O)cc1)[C@@H](C)O)[C@@H](C)O)C(=O)N[C@@H](Cc1ccc(O)cc1)C(=O)N[C@@H](CC(C)C)C(=O)N[C@@H](CCC(=O)O)C(=O)N[C@@H](CO)C(=O)N[C@@H](CCCCN)C(=O)N[C@@H](C)C(=O)N[C@@H](C)C(=O)N[C@@H](Cc1c[nH]cn1)C(=O)N[C@@H](CC(=O)O)C(=O)N[C@@H](Cc1ccccc1)C(=O)N[C@H](C(=O)N[C@@H](CCC(=O)O)C(=O)N[C@@H](Cc1c[nH]c2ccccc12)C(=O)N[C@@H](CC(C)C)C(=O)N[C@@H](CC(C)C)C(=O)N[C@@H](CO)C(=O)N[C@@H](C)C(N)=O)C(C)C
As to B8, in the assay with human GIP receptor, the “EC50, cAMP induction in HEK293 cells expressing human GIP R” value came to 0.013 nM. Further, the “EC50, cAMP induction in HEK293 cells expressing human GLP-1 R” value in the assay with human GLP-1 receptor is 0.011 nM.
